According to patent publication US20030103975A1:

Key:
[1] = target: α3β1 integrin on human endothelial cells (TrHBMEC) (human) (UniProt P26006); assay: cell-based or functional assay
[2] = target: soluble αvβ3 integrin heterodimer (Chemicon International) (UniProt P06756); assay: competition ELISA: soluble αvβ3 (5 ng/µl) on wells coated with G^919-1207 (the competitor), with increasing fibronectin

Chain of α3β1 integrin on human endothelial cells (TrHBMEC) (human) (P26006 33-1051, chain 1 of 2): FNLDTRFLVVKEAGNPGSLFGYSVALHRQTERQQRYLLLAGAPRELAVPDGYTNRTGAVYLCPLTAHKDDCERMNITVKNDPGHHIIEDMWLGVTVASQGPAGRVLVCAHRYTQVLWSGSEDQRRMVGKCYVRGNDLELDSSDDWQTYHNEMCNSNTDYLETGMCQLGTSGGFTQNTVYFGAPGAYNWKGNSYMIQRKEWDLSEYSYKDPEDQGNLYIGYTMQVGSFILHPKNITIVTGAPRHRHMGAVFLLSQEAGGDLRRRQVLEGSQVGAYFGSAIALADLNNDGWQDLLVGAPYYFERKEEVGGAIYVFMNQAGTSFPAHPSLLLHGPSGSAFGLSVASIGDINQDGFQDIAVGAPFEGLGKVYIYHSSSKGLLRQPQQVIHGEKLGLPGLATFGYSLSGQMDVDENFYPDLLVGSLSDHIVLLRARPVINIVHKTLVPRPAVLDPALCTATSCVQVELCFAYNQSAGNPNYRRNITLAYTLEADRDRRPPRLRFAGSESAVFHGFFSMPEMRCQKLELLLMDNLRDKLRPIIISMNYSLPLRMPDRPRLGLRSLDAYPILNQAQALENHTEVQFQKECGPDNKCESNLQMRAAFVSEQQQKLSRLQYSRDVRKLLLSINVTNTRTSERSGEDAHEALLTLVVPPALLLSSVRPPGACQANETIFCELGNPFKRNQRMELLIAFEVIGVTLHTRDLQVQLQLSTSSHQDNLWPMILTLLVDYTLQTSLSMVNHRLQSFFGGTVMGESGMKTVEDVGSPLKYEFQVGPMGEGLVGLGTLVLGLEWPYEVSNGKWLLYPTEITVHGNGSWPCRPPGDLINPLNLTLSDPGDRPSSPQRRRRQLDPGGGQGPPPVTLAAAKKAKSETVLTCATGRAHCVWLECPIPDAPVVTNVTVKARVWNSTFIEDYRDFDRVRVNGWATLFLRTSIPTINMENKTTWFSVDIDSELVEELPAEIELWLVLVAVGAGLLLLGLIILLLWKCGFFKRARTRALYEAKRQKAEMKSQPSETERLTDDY
Chain of α3β1 integrin on human endothelial cells (TrHBMEC) (human) (P05556 21-798, chain 2 of 2, further chain): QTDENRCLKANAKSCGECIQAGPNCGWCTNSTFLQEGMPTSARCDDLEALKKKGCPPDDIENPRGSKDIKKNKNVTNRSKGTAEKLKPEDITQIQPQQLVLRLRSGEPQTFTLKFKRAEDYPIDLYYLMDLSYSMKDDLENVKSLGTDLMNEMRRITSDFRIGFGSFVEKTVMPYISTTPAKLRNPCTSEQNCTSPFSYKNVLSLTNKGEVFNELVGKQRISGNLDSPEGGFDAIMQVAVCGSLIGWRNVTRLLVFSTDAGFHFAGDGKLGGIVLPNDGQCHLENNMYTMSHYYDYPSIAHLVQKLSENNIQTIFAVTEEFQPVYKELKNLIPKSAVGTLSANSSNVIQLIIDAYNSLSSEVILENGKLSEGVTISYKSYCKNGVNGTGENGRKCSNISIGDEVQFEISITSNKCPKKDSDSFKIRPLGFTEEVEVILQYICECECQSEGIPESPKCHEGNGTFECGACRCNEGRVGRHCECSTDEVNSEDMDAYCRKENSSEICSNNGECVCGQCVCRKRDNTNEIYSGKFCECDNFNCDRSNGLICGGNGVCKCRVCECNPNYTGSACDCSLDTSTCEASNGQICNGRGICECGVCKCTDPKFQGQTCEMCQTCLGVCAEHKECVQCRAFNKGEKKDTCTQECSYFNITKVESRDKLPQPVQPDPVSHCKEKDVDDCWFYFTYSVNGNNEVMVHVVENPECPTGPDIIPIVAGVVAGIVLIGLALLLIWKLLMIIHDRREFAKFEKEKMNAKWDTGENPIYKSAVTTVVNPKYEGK
Chain of human fibronectin (BD Biosciences), P02751 32-2296 (ligand) (P02751 other isoform, or with tags, fused parts or gaps limits assumed): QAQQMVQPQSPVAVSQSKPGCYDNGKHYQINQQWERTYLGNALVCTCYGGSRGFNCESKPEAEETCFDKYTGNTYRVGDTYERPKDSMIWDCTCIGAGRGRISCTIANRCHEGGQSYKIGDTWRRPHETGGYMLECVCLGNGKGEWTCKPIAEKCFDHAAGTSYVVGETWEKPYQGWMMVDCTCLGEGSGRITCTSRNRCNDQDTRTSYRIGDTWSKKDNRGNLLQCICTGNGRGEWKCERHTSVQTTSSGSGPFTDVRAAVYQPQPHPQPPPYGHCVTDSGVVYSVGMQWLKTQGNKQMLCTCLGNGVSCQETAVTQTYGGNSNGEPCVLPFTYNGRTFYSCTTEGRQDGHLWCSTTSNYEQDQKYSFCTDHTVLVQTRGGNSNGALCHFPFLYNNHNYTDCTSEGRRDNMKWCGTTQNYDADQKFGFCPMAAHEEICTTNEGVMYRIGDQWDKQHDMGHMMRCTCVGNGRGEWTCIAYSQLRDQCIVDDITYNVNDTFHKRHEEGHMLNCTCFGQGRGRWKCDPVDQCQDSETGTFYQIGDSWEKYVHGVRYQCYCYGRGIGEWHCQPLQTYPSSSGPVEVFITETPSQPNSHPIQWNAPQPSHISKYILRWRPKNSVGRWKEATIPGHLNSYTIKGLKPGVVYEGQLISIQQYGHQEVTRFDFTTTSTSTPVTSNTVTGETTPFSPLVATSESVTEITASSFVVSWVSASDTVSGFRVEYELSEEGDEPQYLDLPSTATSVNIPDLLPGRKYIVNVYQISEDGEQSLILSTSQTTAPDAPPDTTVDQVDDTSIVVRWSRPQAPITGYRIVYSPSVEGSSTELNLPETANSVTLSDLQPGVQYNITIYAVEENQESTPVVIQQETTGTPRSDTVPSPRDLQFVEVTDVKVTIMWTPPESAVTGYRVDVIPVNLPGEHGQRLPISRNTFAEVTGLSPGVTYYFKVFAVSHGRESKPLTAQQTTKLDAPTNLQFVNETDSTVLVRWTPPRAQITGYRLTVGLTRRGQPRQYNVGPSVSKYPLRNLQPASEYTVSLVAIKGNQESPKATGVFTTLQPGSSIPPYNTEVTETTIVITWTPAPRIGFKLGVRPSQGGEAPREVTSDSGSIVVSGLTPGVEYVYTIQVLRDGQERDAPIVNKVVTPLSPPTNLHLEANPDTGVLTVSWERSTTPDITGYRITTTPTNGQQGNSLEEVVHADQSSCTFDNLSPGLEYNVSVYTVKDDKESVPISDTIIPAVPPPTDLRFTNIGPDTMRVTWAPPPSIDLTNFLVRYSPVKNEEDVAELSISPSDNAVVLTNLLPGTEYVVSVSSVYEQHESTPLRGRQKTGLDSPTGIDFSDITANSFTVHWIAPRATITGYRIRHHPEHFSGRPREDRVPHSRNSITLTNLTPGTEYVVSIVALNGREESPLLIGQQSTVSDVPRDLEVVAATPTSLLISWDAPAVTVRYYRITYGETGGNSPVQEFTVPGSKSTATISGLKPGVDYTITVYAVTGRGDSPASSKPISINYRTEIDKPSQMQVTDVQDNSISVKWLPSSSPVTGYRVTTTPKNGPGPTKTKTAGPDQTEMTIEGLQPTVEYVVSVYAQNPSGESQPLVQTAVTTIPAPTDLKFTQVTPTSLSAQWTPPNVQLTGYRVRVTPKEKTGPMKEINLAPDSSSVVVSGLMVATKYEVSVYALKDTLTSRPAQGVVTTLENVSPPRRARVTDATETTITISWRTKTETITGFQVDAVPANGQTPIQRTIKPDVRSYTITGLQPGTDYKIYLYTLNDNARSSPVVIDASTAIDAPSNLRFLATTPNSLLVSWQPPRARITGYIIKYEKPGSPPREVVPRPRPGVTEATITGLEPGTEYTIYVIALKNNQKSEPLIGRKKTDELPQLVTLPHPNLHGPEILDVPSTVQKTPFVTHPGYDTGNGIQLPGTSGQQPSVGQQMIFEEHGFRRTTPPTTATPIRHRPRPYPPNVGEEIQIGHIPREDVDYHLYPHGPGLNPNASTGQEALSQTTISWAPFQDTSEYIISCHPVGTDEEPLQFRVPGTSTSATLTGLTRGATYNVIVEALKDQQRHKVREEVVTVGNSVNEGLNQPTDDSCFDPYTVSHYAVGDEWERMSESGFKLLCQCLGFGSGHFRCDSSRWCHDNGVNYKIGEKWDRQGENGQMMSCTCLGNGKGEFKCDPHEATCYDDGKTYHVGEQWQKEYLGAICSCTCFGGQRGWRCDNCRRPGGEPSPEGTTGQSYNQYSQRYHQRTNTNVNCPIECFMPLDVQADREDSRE

Substance | inhibition of endothelial cell adhesion to laminin 5 by a combination of antibodies against the α3 and α6 integrin subunits [1] [%] | inhibition of endothelial cell adhesion to laminin 5 by antibody 6S6 against β1 integrin [1] [%] | inhibition of endothelial cell adhesion to laminin 5 by antibody LM609 against αvβ3 integrin [1] [%] | IC50 [2] [µM]
laminin 5 derived from conditioned medium of cultured epithelial cells (ligand) | 40 | > 80 | 60 | –
human fibronectin (BD Biosciences), P02751 32-2296 (ligand) | – | – | – | 0.084
